Test results as given in the supplement of paper PMC10567573.

B1: EPB41L3 (parent)
chain: SDYISEFRFAPNHTKELEDKVIEL
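Note: lentivirally expressed fusions sorted by FACS into six bins by GFP to DsRed ratio, PSI derived from sequencing read proportions per bin multiplied by bin number.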

Variants of: B1
Test: protein stability index of a GFP-peptide fusion (GPS, HEK-293T) (PSI 1-6); higher = more stable
Conditions: c terminus: a fixed tail appended
SDYISECRFAPNHTKELEDKVIEL [F7C] showed a protein stability index of 4.2.
Work on SDYISEERFAPNHTKELEDKVIEL [F7E] yielded a protein stability index of 4.96.
Work on SDYISEDRFAPNHTKELEDKVIEL [F7D] yielded a protein stability index of 4.89.
SDYISEARFAPNHTKELEDKVIEL [F7A] showed a protein stability index of 4.4.
Variant SDYISEGRFAPNHTKELEDKVIEL [F7G] has a protein stability index of 4.91.
SLYISEFRFAPNHTKELEDKVIEL [D2L] showed a protein stability index of 2.18.
Variant SPYISEFRFAPNHTKELEDKVIEL [D2P] has a protein stability index of 2.29.
With SNYISEFRFAPNHTKELEDKVIEL [D2N] the protein stability index was 1.88.
In the case of SMYISEFRFAPNHTKELEDKVIEL [D2M], the protein stability index is reported as 2.25.
Variant SVYISEFRFAPNHTKELEDKVIEL [D2V] has a protein stability index of 2.02.
In the case of STYISEFRFAPNHTKELEDKVIEL [D2T], the protein stability index is reported as 1.95.
SRYISEFRFAPNHTKELEDKVIEL [D2R] showed a protein stability index of 2.02.
Variant SSYISEFRFAPNHTKELEDKVIEL [D2S] has a protein stability index of 2.11.
For SKYISEFRFAPNHTKELEDKVIEL [D2K], the protein stability index was 2.45.
Work on SIYISEFRFAPNHTKELEDKVIEL [D2I] yielded a protein stability index of 1.9.
Variant SQYISEFRFAPNHTKELEDKVIEL [D2Q] has a protein stability index of 1.62.
With SYYISEFRFAPNHTKELEDKVIEL [D2Y] the protein stability index was 1.75.
Work on SWYISEFRFAPNHTKELEDKVIEL [D2W] yielded a protein stability index of 1.89.
SDYISTFRFAPNHTKELEDKVIEL [E6T] showed a protein stability index of 1.82.
Work on SDYISMFRFAPNHTKELEDKVIEL [E6M] yielded a protein stability index of 1.92.
SDYISLFRFAPNHTKELEDKVIEL [E6L] showed a protein stability index of 1.84.
In the case of SDYISIFRFAPNHTKELEDKVIEL [E6I], the protein stability index is reported as 2.12.
With SDYISSFRFAPNHTKELEDKVIEL [E6S] the protein stability index was 2.
SDYISYFRFAPNHTKELEDKVIEL [E6Y] gave a protein stability index of 1.84.
In the case of SDYISVFRFAPNHTKELEDKVIEL [E6V], the protein stability index is reported as 2.06.
Work on SDYISFFRFAPNHTKELEDKVIEL [E6F] yielded a protein stability index of 1.52.
Work on SDYISNFRFAPNHTKELEDKVIEL [E6N] yielded a protein stability index of 1.83.
Work on SDYISKFRFAPNHTKELEDKVIEL [E6K] yielded a protein stability index of 1.85.
SDYISRFRFAPNHTKELEDKVIEL [E6R] showed a protein stability index of 2.13.
In the case of SDYISGFRFAPNHTKELEDKVIEL [E6G], the protein stability index is reported as 2.28.
In the case of SDYISAFRFAPNHTKELEDKVIEL [E6A], the protein stability index is reported as 1.67.
SDYISPFRFAPNHTKELEDKVIEL [E6P] gave a protein stability index of 2.43.
Work on SDYISWFRFAPNHTKELEDKVIEL [E6W] yielded a protein stability index of 2.23.
SDYISQFRFAPNHTKELEDKVIEL [E6Q] gave a protein stability index of 2.02.
SDYISDFRFAPNHTKELEDKVIEL [E6D] showed a protein stability index of 1.93.
Work on SDYISHFRFAPNHTKELEDKVIEL [E6H] yielded a protein stability index of 1.43.
SDYISCFRFAPNHTKELEDKVIEL [E6C] gave a protein stability index of 1.92.
SDYTSEFRFAPNHTKELEDKVIEL [I4T] showed a protein stability index of 2.65.
SDYSSEFRFAPNHTKELEDKVIEL [I4S] showed a protein stability index of 3.49.
SDYCSEFRFAPNHTKELEDKVIEL [I4C] showed a protein stability index of 3.6.
In the case of SDYPSEFRFAPNHTKELEDKVIEL [I4P], the protein stability index is reported as 3.76.
With SDYNSEFRFAPNHTKELEDKVIEL [I4N] the protein stability index was 4.27.
SDYYSEFRFAPNHTKELEDKVIEL [I4Y] showed a protein stability index of 3.65.
SDYWSEFRFAPNHTKELEDKVIEL [I4W] gave a protein stability index of 3.03.
SDYESEFRFAPNHTKELEDKVIEL [I4E] gave a protein stability index of 3.92.
Work on SDYASEFRFAPNHTKELEDKVIEL [I4A] yielded a protein stability index of 3.63.
SDYRSEFRFAPNHTKELEDKVIEL [I4R] gave a protein stability index of 3.13.
For SDYQSEFRFAPNHTKELEDKVIEL [I4Q], the protein stability index was 3.98.
With SDYFSEFRFAPNHTKELEDKVIEL [I4F] the protein stability index was 2.77.
Variant SDYHSEFRFAPNHTKELEDKVIEL [I4H] has a protein stability index of 3.96.
With SDYMSEFRFAPNHTKELEDKVIEL [I4M] the protein stability index was 3.18.
SDYGSEFRFAPNHTKELEDKVIEL [I4G] gave a protein stability index of 4.11.
Work on SDYVSEFRFAPNHTKELEDKVIEL [I4V] yielded a protein stability index of 3.02.
For SDYLSEFRFAPNHTKELEDKVIEL [I4L], the protein stability index was 2.36.
For SDYDSEFRFAPNHTKELEDKVIEL [I4D], the protein stability index was 4.2.
For SDYKSEFRFAPNHTKELEDKVIEL [I4K], the protein stability index was 3.23.
SDYINEFRFAPNHTKELEDKVIEL [S5N] gave a protein stability index of 2.22.
In the case of SDYIAEFRFAPNHTKELEDKVIEL [S5A], the protein stability index is reported as 1.93.
Variant SDYIKEFRFAPNHTKELEDKVIEL [S5K] has a protein stability index of 2.75.
In the case of SDYITEFRFAPNHTKELEDKVIEL [S5T], the protein stability index is reported as 2.18.
SDYIIEFRFAPNHTKELEDKVIEL [S5I] showed a protein stability index of 2.02.
For SDYIREFRFAPNHTKELEDKVIEL [S5R], the protein stability index was 2.62.
For SDYIQEFRFAPNHTKELEDKVIEL [S5Q], the protein stability index was 2.7.
SDYIMEFRFAPNHTKELEDKVIEL [S5M] showed a protein stability index of 1.27.
SDYIYEFRFAPNHTKELEDKVIEL [S5Y] showed a protein stability index of 1.66.
SDYIHEFRFAPNHTKELEDKVIEL [S5H] gave a protein stability index of 2.15.
With SDYIPEFRFAPNHTKELEDKVIEL [S5P] the protein stability index was 2.24.
Variant SDYICEFRFAPNHTKELEDKVIEL [S5C] has a protein stability index of 1.97.
SDYILEFRFAPNHTKELEDKVIEL [S5L] showed a protein stability index of 1.92.
Work on SDYIWEFRFAPNHTKELEDKVIEL [S5W] yielded a protein stability index of 1.82.
SDYIDEFRFAPNHTKELEDKVIEL [S5D] showed a protein stability index of 3.8.
Work on SDYIVEFRFAPNHTKELEDKVIEL [S5V] yielded a protein stability index of 2.19.
For SDYIFEFRFAPNHTKELEDKVIEL [S5F], the protein stability index was 1.74.
For SDYIGEFRFAPNHTKELEDKVIEL [S5G], the protein stability index was 1.8.
SDYIEEFRFAPNHTKELEDKVIEL [S5E] showed a protein stability index of 3.79.
In the case of SDSISEFRFAPNHTKELEDKVIEL [Y3S], the protein stability index is reported as 3.59.
SDGISEFRFAPNHTKELEDKVIEL [Y3G] gave a protein stability index of 2.94.
SDDISEFRFAPNHTKELEDKVIEL [Y3D] gave a protein stability index of 4.03.
SDMISEFRFAPNHTKELEDKVIEL [Y3M] gave a protein stability index of 2.29.
In the case of SDPISEFRFAPNHTKELEDKVIEL [Y3P], the protein stability index is reported as 2.4.
In the case of SDHISEFRFAPNHTKELEDKVIEL [Y3H], the protein stability index is reported as 2.91.
SDRISEFRFAPNHTKELEDKVIEL [Y3R] showed a protein stability index of 2.34.
SDKISEFRFAPNHTKELEDKVIEL [Y3K] showed a protein stability index of 2.69.
Variant SDLISEFRFAPNHTKELEDKVIEL [Y3L] has a protein stability index of 2.08.
For SDIISEFRFAPNHTKELEDKVIEL [Y3I], the protein stability index was 1.86.
Variant SDTISEFRFAPNHTKELEDKVIEL [Y3T] has a protein stability index of 3.06.
In the case of SDNISEFRFAPNHTKELEDKVIEL [Y3N], the protein stability index is reported as 3.18.
Variant SDFISEFRFAPNHTKELEDKVIEL [Y3F] has a protein stability index of 1.91.
For SDCISEFRFAPNHTKELEDKVIEL [Y3C], the protein stability index was 2.38.
With SDAISEFRFAPNHTKELEDKVIEL [Y3A] the protein stability index was 2.76.
SDVISEFRFAPNHTKELEDKVIEL [Y3V] gave a protein stability index of 1.97.
In the case of SDWISEFRFAPNHTKELEDKVIEL [Y3W], the protein stability index is reported as 2.39.
SDQISEFRFAPNHTKELEDKVIEL [Y3Q] showed a protein stability index of 3.28.
SDEISEFRFAPNHTKELEDKVIEL [Y3E] showed a protein stability index of 4.43.
